From patent publication US20240228562A1 (Pieris, published 2024) come the findings set out here.

Experiment in all cases: ELISA, coated CCN protein
Background: ELISA stands for enzyme-linked immunosorbent assay.

One assay has as its target T1, huWISP-2 (human, UniProt O76076 24-250, limits assumed).
T1 construct: also called human WISP-2 (CCN5)
T1 sequence (looked up): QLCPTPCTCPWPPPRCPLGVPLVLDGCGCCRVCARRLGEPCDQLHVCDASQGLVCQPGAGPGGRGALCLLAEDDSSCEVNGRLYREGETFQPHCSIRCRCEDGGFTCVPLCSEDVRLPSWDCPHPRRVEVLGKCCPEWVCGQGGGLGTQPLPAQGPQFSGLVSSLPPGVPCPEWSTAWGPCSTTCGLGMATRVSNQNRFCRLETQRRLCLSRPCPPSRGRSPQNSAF
The protocol: (§1) Binding of muteins to closely related proteins of CTGF was tested by an ELISA assay. In detail, a 384-well plate suitable for fluorescence measurements (Greiner FLUOTRAC™ 600, black flat bottom, high-binding) was coated with 20 μl of human CTGF or the other members of the CCN protein family at a concentration of 1 μg/ml in PBS over night at 4° C. After washing with PBS with 0.05% Tween 20, wells were blocked with 100 μl blocking buffer containing 0.1% Tween 20 and 2% BSA (PBS-T/BSA) for 1 h at room temperature. 20 μl of serially diluted muteins starting at 1000 nM were incubated in PBS-T/BSA for 1 h at room temperature (RT).
(§2) The residual supernatants were discarded and 20 μl HRP-labeled anti-NGAL or anti-Strep-Tag antibody was added at a predetermined optimal concentration in PBS-T/BSA and incubated for 1 h at RT. After washing, 20 μl fluorogenic HRP substrate (QuantaBlu, Thermo) was added to each well, and the reaction was allowed to proceed for 2 to 60 minutes. The fluorescence intensity of every well on the plate was read using a fluorescence microplate reader (Tecan). When the signal for human CTGF approached saturation, the cross reactivity to the other proteins was assessed.

Another assay concerns the target T2, huCYR61 (human, UniProt O00622 25-381, limits assumed).
T2 construct: also called human CYR61 (CCN1)
T2 sequence (looked up): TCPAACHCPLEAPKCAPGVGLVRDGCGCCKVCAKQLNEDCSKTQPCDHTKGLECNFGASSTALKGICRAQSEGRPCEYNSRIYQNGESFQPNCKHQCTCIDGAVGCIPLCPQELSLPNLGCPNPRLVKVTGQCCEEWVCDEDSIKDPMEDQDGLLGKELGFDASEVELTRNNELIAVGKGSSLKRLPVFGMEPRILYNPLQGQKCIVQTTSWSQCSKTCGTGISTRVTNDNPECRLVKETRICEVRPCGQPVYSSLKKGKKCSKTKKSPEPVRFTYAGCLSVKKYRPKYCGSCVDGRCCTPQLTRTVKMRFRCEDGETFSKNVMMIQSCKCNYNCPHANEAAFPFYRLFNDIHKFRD
As for the experimental part:
as §1, §2

The target of the next assay is T3, huWISP-3 (human, UniProt O95389 24-354, limits assumed).
T3 construct: also called human WISP-3 (CCN6)
T3 sequence (looked up): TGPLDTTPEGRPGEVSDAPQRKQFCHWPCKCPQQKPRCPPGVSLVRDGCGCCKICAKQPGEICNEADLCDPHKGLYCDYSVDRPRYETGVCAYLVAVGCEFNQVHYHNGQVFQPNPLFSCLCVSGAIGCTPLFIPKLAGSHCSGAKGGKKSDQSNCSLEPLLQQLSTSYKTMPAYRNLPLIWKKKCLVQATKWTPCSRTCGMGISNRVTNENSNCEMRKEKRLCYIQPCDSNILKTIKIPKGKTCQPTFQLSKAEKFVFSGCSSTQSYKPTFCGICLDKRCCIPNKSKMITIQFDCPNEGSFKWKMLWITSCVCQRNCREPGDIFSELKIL
The protocol: as §1, §2

For a further assay, the target named is T4, huWISP-1 (human, UniProt O95388 23-367, limits assumed).
T4 construct: also called human WISP-1 (CCN4)
T4 sequence (looked up): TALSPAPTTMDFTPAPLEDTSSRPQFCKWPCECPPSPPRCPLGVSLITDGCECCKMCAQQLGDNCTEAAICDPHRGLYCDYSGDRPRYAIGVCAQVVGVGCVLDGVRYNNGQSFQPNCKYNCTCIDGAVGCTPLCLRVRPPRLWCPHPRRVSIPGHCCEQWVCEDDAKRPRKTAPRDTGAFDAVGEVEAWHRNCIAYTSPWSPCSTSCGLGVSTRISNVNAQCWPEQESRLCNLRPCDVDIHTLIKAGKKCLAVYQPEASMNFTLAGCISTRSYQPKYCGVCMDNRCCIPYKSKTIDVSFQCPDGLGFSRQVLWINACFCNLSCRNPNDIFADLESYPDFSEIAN
As for the experimental part: as §1, §2

A further assay addresses T5, huNOV (human, UniProt P48745 32-357, limits assumed).
T5 construct: also called human NOV (CCN3)
T5 sequence (looked up): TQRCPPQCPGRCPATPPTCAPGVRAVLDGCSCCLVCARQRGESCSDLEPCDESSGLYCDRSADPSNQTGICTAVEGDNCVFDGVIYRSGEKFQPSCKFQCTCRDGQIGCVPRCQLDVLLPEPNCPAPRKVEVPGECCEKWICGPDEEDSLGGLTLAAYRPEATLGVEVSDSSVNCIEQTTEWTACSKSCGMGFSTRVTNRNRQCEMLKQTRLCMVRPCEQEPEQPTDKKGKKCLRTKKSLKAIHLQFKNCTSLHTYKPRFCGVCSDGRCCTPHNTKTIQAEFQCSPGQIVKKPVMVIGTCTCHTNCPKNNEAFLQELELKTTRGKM
As for the experimental part:
as §1, §2

B1: lipocalin mutein of SEQ ID NO: 25 (designed binder)
chain: QDSTSDLIPAPPLSKVPLQQNFQDNQFHGKWYVVGMAGNFRLREDKDPSKMGATIYELKEDKSYNVTQVQFDDKKCLYVIETFVPGSQPGEFTLGAIKSFPGFTSQLVRVVSTNYNQHAMVFFKKVYQNREVFWITLYGRTKELTSELKENFIRFSKSLGLPENHIVFPVPIDQCIDGSAWSHPQFEK
notes: Parent hNGAL mutein; also called hNGAL mutein
Regarding B1, the binding result with huWISP-2, with huCYR61, with huWISP-3, in the assay with huWISP-1 and with huNOV was “no binding (tested: dilutions starting at 1000 nM)” in each case.

B2: lipocalin mutein of SEQ ID NO: 3 (designed binder)
chain: QDSTSDLIPAPPLSKVPLQQNFQDNQFHGKWYVVGRAGNNRLREDKDPPKMWATIYELKEDKSYNVTHVHFMTKKCRYIIDTFVPGSQPGEFTLGAIKSGPGMTSPLVRIVSTNYNQHAMVFFKWVNQNREWFTITLYGRTKELTSELKENFIRFSKSLGLPENHIVFPVPIDQCIDGSAWSHPQFEK
notes: as for B1
Turning to B2, the binding result with huWISP-2, in the assay with huCYR61, with huWISP-3, with huWISP-1 and with huNOV was “no binding (tested: dilutions starting at 1000 nM)” throughout.

B3: lipocalin mutein of SEQ ID NO: 15 (designed binder)
chain: QDSTSDLIPAPPLSKVPLQQNFQDNQFQGKWYVVGLAGNAILREDKQPAKMFATIYELKEDKSYDVTSVRFEAKSCKYTIKTFVPGSQPGEFTAGYIKSAPGQTSTLVRVVSTNYNQHAMVFFKHVTQNREIFVITLYGRTKELTSELKENFIRFSKSLGLPENHIVFPVPIDQCIDG
notes: also called hNGAL mutein; not shown: C-terminal His-tag
As to B3, the binding result in the assay with huWISP-2, with huCYR61, with huWISP-3, with huWISP-1 and in the assay with huNOV was “no binding (tested: dilutions starting at 1000 nM)” each time.

B4: lipocalin mutein of SEQ ID NO: 9 (designed binder)
chain: QDSTSDLIPAPPLSKVPLQQNFQDNQFHGKWYVVGLAGNKILRIDKQPAKMFATIYELKEDKSYDVTSVRFEARSCSYTIKTFVPGSQPGEFTAGNIKSAPGQTSTLVRVVSTNYNQHAMVFFKHVSQNRETFVITLYGRTKELTSELKENFIRFSKSLGLPENHIVFPVPIDQCIDGSAWSHPQFEK
notes: as for B1
B4: the binding result with huWISP-2, with huCYR61, with huWISP-3, with huWISP-1 and with huNOV was “no binding (tested: dilutions starting at 1000 nM)” in each case.

B5: lipocalin mutein of SEQ ID NO: 29 (designed binder)
chain: QDSTSDLIPAPPLSKVPLQQNFQDNQFHGKWYVVGWAGNIKLREDKDPFKMSATIYELKEDKSYNVTEVVFEQKKCHYIIKTFVPGSQPGEFTLGDIKSPPGETSSLVRVVSTNYNQHAMVFFKKVFQNREFFWITLYGRTKELTSELKENFIRFSKSLGLPENHIVFPVPIDQCIDGSAWSHPQFEK
notes: as for B1
With B5, the binding result with huWISP-2, in the assay with huCYR61, with huWISP-3, with huWISP-1 and with huNOV was “no binding (tested: dilutions starting at 1000 nM)” in each case.

B6: lipocalin mutein of SEQ ID NO: 7 (designed binder)
chain: QDSTSDLIPAPPLSKVPLQQNFQDNQFHGKWYVVGLAGNYGLRTDKRPSKMFATIYELKEDKSYDVTSVRFEQERCHYTIRTFVPGSQPGEFTTGSIKSRPGQTSSLVRVVSTNYNQHAMVFFKSVIQNREYFAITLYGRTKELTSELKENFIRFSKSLGLPENHIVFPVPIDQCIDGSAWSHPQFEK
notes: as for B1
As for B6, the binding result with huWISP-2, in the assay with huCYR61, with huWISP-3, with huWISP-1 and in the assay with huNOV was “no binding (tested: dilutions starting at 1000 nM)” each time.
